Reference: patent publication US20200109196A1 (MOGAM INSTITUTE FOR BIOMEDICAL RESEARCH, published 2020)

T1: recombinant human CEACAM-1/CD66a protein (R&D systems; Cat. No. 2244-CM) (human, UniProt P13688 35-428)
T1 construct: Bought protein; captured on anti-His (His1K) biosensors in the Octet assay, so it carries a His tag; also called HCCM1; recombinant CEACAM-1/CD66a protein
T1 sequence (looked up): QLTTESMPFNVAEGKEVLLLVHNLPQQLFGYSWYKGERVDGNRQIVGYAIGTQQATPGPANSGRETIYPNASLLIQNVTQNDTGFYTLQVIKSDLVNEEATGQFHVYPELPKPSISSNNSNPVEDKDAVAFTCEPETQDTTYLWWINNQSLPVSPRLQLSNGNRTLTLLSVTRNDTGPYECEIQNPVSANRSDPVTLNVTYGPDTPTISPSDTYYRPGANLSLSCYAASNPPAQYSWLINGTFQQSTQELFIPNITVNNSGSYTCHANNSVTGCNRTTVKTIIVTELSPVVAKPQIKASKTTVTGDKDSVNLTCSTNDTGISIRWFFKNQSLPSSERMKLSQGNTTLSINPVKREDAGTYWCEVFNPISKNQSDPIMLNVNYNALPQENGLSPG

T2: CEACAM5 expressed on the surface of HEK293 cells (human, UniProt P06731 35-685)
T2 construct: whole, on cells; GFP-tagged clone; also called CEACAM5-GFP
T2 sequence (looked up): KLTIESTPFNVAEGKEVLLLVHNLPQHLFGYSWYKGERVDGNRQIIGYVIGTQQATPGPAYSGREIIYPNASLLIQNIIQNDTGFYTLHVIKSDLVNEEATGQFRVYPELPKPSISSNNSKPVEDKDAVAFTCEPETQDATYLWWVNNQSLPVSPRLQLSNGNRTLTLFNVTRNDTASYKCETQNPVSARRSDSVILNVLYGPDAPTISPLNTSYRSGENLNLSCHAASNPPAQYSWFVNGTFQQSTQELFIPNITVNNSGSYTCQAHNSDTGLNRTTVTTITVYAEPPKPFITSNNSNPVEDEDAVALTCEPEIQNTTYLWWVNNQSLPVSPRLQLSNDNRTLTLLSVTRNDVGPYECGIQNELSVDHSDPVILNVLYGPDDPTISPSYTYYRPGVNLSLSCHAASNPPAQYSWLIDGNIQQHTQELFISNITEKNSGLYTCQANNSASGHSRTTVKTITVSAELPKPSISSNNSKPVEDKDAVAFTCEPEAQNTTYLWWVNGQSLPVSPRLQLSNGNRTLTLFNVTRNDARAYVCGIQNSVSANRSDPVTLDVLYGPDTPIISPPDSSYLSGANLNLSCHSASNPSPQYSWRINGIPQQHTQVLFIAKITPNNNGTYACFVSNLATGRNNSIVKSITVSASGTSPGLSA

T3: CEACAM8 expressed on the surface of HEK293 cells (human, UniProt P31997 35-320)
T3 construct: whole, on cells
T3 sequence (looked up): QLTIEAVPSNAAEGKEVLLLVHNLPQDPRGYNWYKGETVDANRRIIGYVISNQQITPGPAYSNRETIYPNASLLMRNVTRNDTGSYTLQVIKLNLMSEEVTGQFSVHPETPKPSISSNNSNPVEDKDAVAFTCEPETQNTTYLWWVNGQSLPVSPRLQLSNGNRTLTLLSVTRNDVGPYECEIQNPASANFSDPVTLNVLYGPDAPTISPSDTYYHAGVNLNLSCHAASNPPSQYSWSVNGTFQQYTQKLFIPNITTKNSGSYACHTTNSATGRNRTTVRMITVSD


Key:
[1] = molecular target: T1, recombinant human CEACAM-1/CD66a …; assay: Octet QKe biolayer interferometry, anti-His (HIS1K) biosensors, antibody 6.25-400 nM
Protocol: The last well in each row was with a sample at the antibody concentration of 0 nM. Recombinant human CEACAM1 protein (R&D Systems; Cat. No. 2244-CM) was diluted to obtain a concentration of […], and dispensed into each well of another column at 200 μl/well.
As for the washing buffer, neutralization buffer and baseline buffer, Reagent/Kinetics buffer (10×) (Fortebio; Cat. No. 18-1092) were 1:10 diluted and dispensed into each well of a column in a row at 200 μl/well, and the regeneration buffer was dispensed into each well at 200 μl/well. Greiner 96-well plate was separately prepared, Reagent/Kinetics buffer (1×) was dispensed into each well of the number of biosensors to be used in a row at 200 μl/well, and Biosensors/Anti-His (His1K) (Fortebio; Cat. No. 18-5120) cassette was installed.

[2] = molecular target: T2, CEACAM5 expressed on the surface of …; assay: flow cytometry on transfected HEK293 cells (GFP+ gate), PE goat anti-huIgG4 [b]
Protocol: (§1) HEK293 cells were added with 10 μg of each pEF1α-AcGFP-N1 vector (Clontech, Cat. No. 631973) as a control vector, CEACAM1, CEACAM3, CEACAM5, CEACAM6 and CEACAM8 plasmid vectors, followed by transfection under the condition of pulse voltage 1,100 V, pulse width 20 ms and pulse number 2. After 48 hours of transfection, GFP expression was confirmed by fluorescence microscopy. The cells were detached by treatment with 1 ml of TrypLE Express Solution (ThermoFisher Scientific; Cat. No. 12605010), resuspended in 9 ml of DMEM (Gibco, Cat. No. 11995-065) supplemented with 10% (v/v) FBS, and centrifuged at 1,200 rpm for 5 minutes, to remove the resulting supernatant.
(§2) After washing once with PBS, the cells were resuspended in a FACS buffer to obtain a concentration of 5×10⁵ cells/100 μl. Human Fc Block solution was added to the samples at 1 μl/sample, which were incubated at 4° C. for 10 minutes. The cells were treated with hulgG4 or one of the anti-CEACAM1 clones listed at 1 μg/5×10⁵ cells, which were incubated at 4° C. for 10 minutes. After washing with FACS buffer, the PE-labeled goat-anti-huIgG4 antibodies were diluted at a ratio of 1:200 in a FACS buffer, and added to the samples at 100 μl/sample, which were incubated at 4° C. for 30 minutes. The samples were filled with a FACS buffer up to 200 μl, and then centrifuged at 1,200 rpm for 5 minutes, to remove the resulting supernatant. The fixation buffer (300 μl) was added to resuspend the cells. The cells expressing GFP were selected in the FACS LSR-Fortessa device, and the expression of CEACAM members were evaluated respectively using the antibody specific to each CEACAM member (Table 3). Also, the binding of anti-CEACAM1 antibodies was evaluated by PE fluorescence channel and analyzed using the FlowJo software.

[3] = molecular target: T3, CEACAM8 expressed on the surface of …; assay: as above
Protocol: as §1, §2

Binder	Kd [1] [nM]	koff [1] [s⁻¹]	kon [1] [M⁻¹ s⁻¹]	binding result [2]	binding result [3]
C25 (antibody, human IgG4 S228P, lambda, V domains shown, Made in ExpiHEK293F cells, protein A purified. huIgG4 is the isotype control and anti-huIgG4 the detection reagent; the isotype is not otherwise stated; also called anti-CEACAM1 antibody C25) VH: EVQLLESGGGLVQPGGSLRLSCAASGFTFSNYAMSWVRQAPGKGLEWVSVISHGGGSIYYADSVKGRLTISRDNSKNTLYLQMNSLRAEDTAVYYCARDPTKGYAPTFDYWGQGTLVTVSS VL: QSVLTQPPSASGTPGQRVTISCSGSSSNIGNNYVSWYQQLPGTAPKLLIYADSKRPSGVPDRFSGSKSGTSASLAISGLRSEDEADYYCGAWDASLNGYVFGGGTKLTVLG	34.9	0.000505	18200	–	–
4R9 (antibody, human IgG4 S228P, lambda, V domains shown, also called C25-derived clone 4R9) VH: EVQLLESGGGLVQPGGSLRLSCAASGFTFSNYAMSWVRQAPGKGLEWVSVISHGGGSIYYADSVKGRLTISRDNSKNTLYLQMNSLRAEDTAVYYCARDPTKGYAPTFDYWGQGTLVTVSS VL: QSVLTQPPSASGTPGQRVTISCSGSSSNIGNNYVSWYQQLPGTAPKLLIYADSRRPSGVPDRFSGSKSGTSASLAISGLRSEDEADYYCGAWDLSLNGYVFGGGTKLTVLG	3.39	0.000567	163000	no binding	no binding
4R9_H4-n20 (antibody, human IgG4 S228P, lambda, V domains shown, also called C25-derived clone 4R9_H4-n20) VH: EVQLLESGGGLVQPGGSLRLSCAASGFNFSNYAMSWVRQAPGKGLEWVSVISHGGGSIYYADSVKGRLTISRDNSKNTLYLQMNSLRAEDTAVYYCARDPTKGYAPTFDYWGQGTLVTVSS VL: QSVLTQPPSASGTPGQRVTISCSGSSSNIGNNYVSWYQQLPGTAPKLLIYADSRRPSGVPDRFSGSKSGTSASLAISGLRSEDEADYYCGAWDLSLNGYVFGGGTKLTVLG	39	0.000333	26100	no binding	no binding

Further binders by falling Kd [1], results first:

Kd [1] [nM]	koff [1] [s⁻¹]	kon [1] [M⁻¹ s⁻¹]	binding result [2]	binding result [3]	Binder
3.54	0.000627	169000	no binding	no binding	4R9_H2-2 (antibody, human IgG4 S228P, lambda, V domains shown, also called C25-derived clone 4R9_H2-2) VH: EVQLLESGGGLVQPGGSLRLSCAASGFTFSNYAMSWVRQAPGKGLEWVSVISHGGGSIYYADSVKGRLTISRDNSKNTLYLQMNSLRAEDTAVYYCARDPTKGYAPLFDYWGQGTLVTVSS VL: QSVLTQPPSASGTPGQRVTISCSGSSSNIGNNYVSWYQQLPGTAPKLLIYADSRRPSGVPDRFSGSKSGTSASLAISGLRSEDEADYYCGAWDLSLNGYVFGGGTKLTVLG
1.82	0.000266	133000	no binding	no binding	4R26 (antibody, human IgG4 S228P, lambda, V domains shown, also called C25-derived clone 4R26) VH: EVQLLESGGGLVQPGGSLRLSCAASGFTFSNYAMSWVRQAPGKGLEWVSVISHGGGSIYYADSVKGRLTISRDNSKNTLYLQMNSLRAEDTAVYYCARDPTKGYAPTFDYWGQGTLVTVSS VL: QSVLTQPPSASGTPGQRVTISCSGSSSNIGNNYVSWYQQLPGTAPKLLIYADSKRLSGVPDRFSGSKSGTSASLAISGLRSEDEADYYCGAWDGRLNGYVFGGGTKLTVLG
